Assay [1] addresses human complement C3b (UniProt P01024). Description: flow cytometry on bacteria. The conditions noted are these: Alexa488-labeled Fg 60 µg/ml; Efb (mutants) 0.5 µM; serum-opsonized S. aureus; buffer control est. 65 MFI; parent: est. 1300; read off a plot. On the technique in general: A flow cytometer gives signals particle by particle.
Assay [2] has the same target. Description: ELISA. The conditions noted are these: C3b-coated wells, 50 nM Fg detected with peroxidase-conjugated anti-Fg antibody, read off a plot. (An ELISA detects its analyte on a solid surface through an enzyme-linked reagent.)
For a further assay, the target named is human fibrinogen (human) (UniProt P02671).
Sequence of UniProt P02671 (P02671 36-866, chain 1 of 3): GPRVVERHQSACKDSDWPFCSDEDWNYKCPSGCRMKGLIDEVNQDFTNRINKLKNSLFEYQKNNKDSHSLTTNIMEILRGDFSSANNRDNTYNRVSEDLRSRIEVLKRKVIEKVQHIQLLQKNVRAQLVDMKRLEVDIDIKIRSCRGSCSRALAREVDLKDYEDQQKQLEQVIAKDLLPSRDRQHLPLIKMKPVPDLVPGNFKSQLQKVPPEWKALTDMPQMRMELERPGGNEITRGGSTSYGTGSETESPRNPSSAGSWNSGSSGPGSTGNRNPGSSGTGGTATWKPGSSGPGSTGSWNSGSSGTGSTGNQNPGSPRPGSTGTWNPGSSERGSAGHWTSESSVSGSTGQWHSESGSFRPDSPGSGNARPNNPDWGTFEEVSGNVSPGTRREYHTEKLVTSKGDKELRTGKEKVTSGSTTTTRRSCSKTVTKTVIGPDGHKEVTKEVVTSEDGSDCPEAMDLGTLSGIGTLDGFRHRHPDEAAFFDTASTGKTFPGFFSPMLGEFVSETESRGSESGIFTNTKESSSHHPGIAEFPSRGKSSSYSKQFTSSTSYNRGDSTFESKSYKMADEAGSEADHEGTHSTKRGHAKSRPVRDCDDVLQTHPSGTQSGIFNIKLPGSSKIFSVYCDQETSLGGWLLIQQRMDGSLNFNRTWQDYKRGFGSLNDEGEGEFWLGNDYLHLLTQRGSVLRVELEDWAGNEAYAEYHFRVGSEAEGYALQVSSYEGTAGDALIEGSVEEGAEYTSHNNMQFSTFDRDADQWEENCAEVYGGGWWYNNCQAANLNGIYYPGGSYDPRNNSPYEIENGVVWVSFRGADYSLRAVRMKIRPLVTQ
Sequence of UniProt P02671 (P02675 45-491, chain 2 of 3, further chain): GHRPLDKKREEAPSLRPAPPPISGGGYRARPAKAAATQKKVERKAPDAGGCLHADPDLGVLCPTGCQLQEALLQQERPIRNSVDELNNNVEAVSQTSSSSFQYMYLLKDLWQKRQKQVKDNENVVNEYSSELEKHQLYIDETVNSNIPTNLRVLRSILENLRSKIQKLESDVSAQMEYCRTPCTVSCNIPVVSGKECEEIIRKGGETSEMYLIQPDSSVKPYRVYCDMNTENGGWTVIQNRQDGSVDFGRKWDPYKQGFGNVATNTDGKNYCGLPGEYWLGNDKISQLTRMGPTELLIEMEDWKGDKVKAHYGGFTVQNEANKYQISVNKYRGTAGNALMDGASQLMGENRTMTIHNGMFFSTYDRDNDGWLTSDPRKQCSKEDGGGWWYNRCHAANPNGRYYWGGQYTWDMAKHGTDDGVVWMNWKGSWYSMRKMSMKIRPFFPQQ
Sequence of UniProt P02671 (P02679 27-453, chain 3 of 3, further chain): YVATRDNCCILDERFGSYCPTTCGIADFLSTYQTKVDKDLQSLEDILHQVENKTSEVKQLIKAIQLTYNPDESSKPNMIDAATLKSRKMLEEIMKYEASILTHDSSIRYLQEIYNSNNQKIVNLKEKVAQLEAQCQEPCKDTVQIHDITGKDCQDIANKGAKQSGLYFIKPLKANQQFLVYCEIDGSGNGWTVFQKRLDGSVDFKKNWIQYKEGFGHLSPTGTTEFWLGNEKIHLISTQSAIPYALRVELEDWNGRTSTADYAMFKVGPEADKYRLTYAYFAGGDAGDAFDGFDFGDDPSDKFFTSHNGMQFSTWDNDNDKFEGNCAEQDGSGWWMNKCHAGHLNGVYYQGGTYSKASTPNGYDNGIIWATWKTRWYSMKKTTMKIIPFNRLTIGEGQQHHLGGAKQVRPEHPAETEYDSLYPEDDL

Consider “GST-tagged full-length Extracellular fibrinogen binding protein (Efb), wild type (from UniProt A6QG59) R131E; N138E”, for which the response with human complement C3b [1] was determined as 180 MFI; with human complement C3b [2] (Efb about 6 nM (fourth point, read from the x axis), parent: est. 0.93), 0.2 OD450; in the assay with human complement C3b [2] (Efb about 25 nM (highest point, read from the x axis), parent: est. 0.91), 0.23 OD450.

In the case of “His-tagged Efb, wild type (from UniProt A6QG59 30-165) (natural protein)”, in the assay with human fibrinogen (human), the inhibition of phagocytosis of fluorescent S. aureus by human neutrophils in 2.5% human plasma, dose response of Efb (needs the interaction with C3b as well) was determined as 0.08 µM.

Values taken from article PMC3861539.
